Target: T1, GP-NRSF1-8 (UniProt Q13127)
T1 sequence: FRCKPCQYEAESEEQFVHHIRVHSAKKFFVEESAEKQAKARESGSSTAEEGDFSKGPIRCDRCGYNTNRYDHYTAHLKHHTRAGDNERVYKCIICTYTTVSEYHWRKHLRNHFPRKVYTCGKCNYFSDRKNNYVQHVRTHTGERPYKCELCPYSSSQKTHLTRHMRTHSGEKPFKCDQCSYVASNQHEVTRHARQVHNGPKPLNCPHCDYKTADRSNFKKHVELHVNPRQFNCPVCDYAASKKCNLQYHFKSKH
Test: one_hybrid
Conditions: bacterial two-hybrid lacZ reporter; nearly 7-fold vs Gal11P only

consensus NRSE (21 bp)
activity (fold activation): 7
